Experiments:
[1] = test system: Renilla luciferase expression; test: Renilla luciferase assay of HEK 293 cells transfected with pRL-SV40 constructs carrying U1 binding sites in the 3′ UTR; type: cell-based; conditions: for suppressive effect of U1 site on luciferase gene expression (in words): no ligand; for reduction fold (luciferase activity of mutant construct / wild type construct): compared to corresponding mutant construct; for inhibition of Renilla luciferase expression/activity: compared to pRL-SV40 control vector
Protocol: Plasmid constructs: oligonucleotides (oligos) containing either wild type consensus U1 binding sequence or its mutant sequence were synthesized (IDT). The synthesized oligos were cloned into the 3′ UTR of the pRL-SV40 luciferase expression vector (Promega) using Gibson Assembly Cloning Kit (NEB). Constructs were purified (Qiagen) and verified by DNA sequencing (Genewiz).
(§1) Transfection: 3.5×10^4 HEK 293 cells were plated in a 96-well flat bottom plate the day before transfection. Plasmid DNA (500 ng) was added to a tube or a 96-well U-bottom plate. Separately, TransIT-293 reagent (Mirus; 1.4 μl) was added to 50 μl Opti-mem I media (Life Technologies), and allowed to sit for 5 minutes at room temperature (“RT”). Then, 50 μl of this diluted transfection reagent was added to the DNA, mixed, and incubated at RT for 20 min. Finally, 7 μl of this solution was added to a well of cells in the 96-well plate.
(§2) Renilla luciferase assay of cultured cells: 24 hours after the media change, plates were removed from the incubator, and equilibrated to RT for several minutes on a lab bench, and the media aspirated. Glo-lysis buffer (Promega, 100 μl, RT) was added, and the plates allowed to remain at room temp for at least 5 minutes. Then, the well contents were mixed by 50 μl trituration, and 20 μl of each well was mixed with 20 μl of Renilla-glo reagent in a solid-white 384-well plate. Ten minutes later, luminescence was measured using a Tecan machine with 500 msec read time. The luciferase activity was expressed as mean relative light unit (RLU)±SD.
The stem-loop sequences containing a wild type 9 nt U1 binding sequence were synthesized (IDT) and cloned into pRL-SV40 vector. The construct sequences were verified by DNA sequencing (Genewiz). HEK 293 cells were transfected and Renilla luciferase assay were performed as described in Example 1.

[2] = test system: Renilla luciferase expression; test: Renilla luciferase assay of HEK 293 cells transfected with U1_theo riboswitch constructs, with or without theophylline; type: cell-based; conditions: for change of luciferase activity after theophylline treatment (in words): with vs without theophylline
Protocol: as §1, §2
Oligonucleotides containing either the full length of sequences of the stem from the stem-loop structure and theophylline aptamer or the truncated sequences of the stem, were synthesized (IDT) and cloned into pRL-SV40 vector using the Gibson Assembly Cloning Kit (NEB). Construct sequences were verified by DNA sequencing (Genewiz).
Transfection and aptamer ligand treatment: HEK 293 cells were transfected as described in Example 1. Four hours after transfection, the media was aspirated, and new media with or without 3 mM theophylline was added. A Renilla luciferase assay was performed 20 to 24 hours after theophylline treatment as described in Example 1. The induction fold was expressed as the quotient of luciferase activity obtained in the presence of aptamer ligand divided by the value obtained in the absence of the aptamer ligand.
Oligos containing 4 copies of the U1_theo_8_1 sequence in tandem were synthesized (IDT) and cloned using Gibson strategy and cloning kit (NEB). HEK 293 cells were transfected and Renilla luciferase assay was performed as described in Example 4.

B1: U1-87 mut: 10-nt mutant U1 binding sequence at −87 in pRL-SV40 (nucleic acid)
DNA: TCAAATCGTTCGTTGAGCGAGTTCTCAAAAATGAACAATAATTCTAGAGCGGCCGCTTCGAGCAGACATGATAAGATACATTGATGAGTTTGGACAAACCATGGAACTACAACTAGAATGCAGTGAAAAAAATGCTTTATTTGTGAAATTTGTGATGCTATTGCTTTATTTGTAACCATTATAAGCTGCAATAAACAAGTTAACAACAAC
modifications: in pRL-SV40; U1-87 mut in pRL-SV40
- suppressive effect of U1 site on luciferase gene expression (in words) [1]: did not have any suppressive effect on luciferase gene expression

B2: U1-87 wt: 10-nt consensus U1 binding sequence 87 nt upstream of poly(A) signal in 3′ UTR of pRL-SV40 (nucleic acid)
DNA: TCAAATCGTTCGTTGAGCGAGTTCTCAAAAATGAACAATAATTCTAGAGCGGCCGCTTCGAGCAGACATGATAAGATACATTGATGAGTTTGGACAAACCAGGTAAGTACAACTAGAATGCAGTGAAAAAAATGCTTTATTTGTGAAATTTGTGATGCTATTGCTTTATTTGTAACCATTATAAGCTGCAATAAACAAGTTAACAACAAC
modifications: in pRL-SV40; U1-87 wt in pRL-SV40
- reduction fold (luciferase activity of mutant construct / wild type construct) [1]: 50 fold
- inhibition of Renilla luciferase expression/activity [1]: 98%

B3: U1_theo_9: U1 site stem linked to theophylline aptamer in pRL-SV40, stem truncation series (nucleic acid)
DNA: TCAAATCGTTCGTTGAGCGAGTTCTCAAAAATGAACAATAATTCTAGAGCGGCCGCTTCGAGCAGACATGATAAGATACATTGATGAGTTTGGACAAACCAAACCCAGGTAAGTATACCAGCCGAAAGGCCCTTGGCAGACTTACCTGGGCAACTAGAATGCAGTGAAAAAAATGCTTTATTTGTGAAATTTGTGATGCTATTGCTTTATTTGTAACCATTATAAGCTGCAATAAACAAGTTAACAACAAC
modifications: in pRL-SV40; U1_theo_9 in pRL-SV40
notes: U1 site stem linked to theophylline aptamer in pRL-SV40, stem truncation series
- change of luciferase activity after theophylline treatment (in words) [2]: small increase in luciferase activity
- change of luciferase activity after theophylline treatment (in words) ([2]; listed as 9): increased

B4: U1_theo_8: U1 site stem linked to theophylline aptamer in pRL-SV40, stem truncation series (nucleic acid)
DNA: TCAAATCGTTCGTTGAGCGAGTTCTCAAAAATGAACAATAATTCTAGAGCGGCCGCTTCGAGCAGACATGATAAGATACATTGATGAGTTTGGACAAACCAAACCCAGGTAAGTGATACCAGCCGAAAGGCCCTTGGCAGCACTTACCTGGGCAACTAGAATGCAGTGAAAAAAATGCTTTATTTGTGAAATTTGTGATGCTATTGCTTTATTTGTAACCATTATAAGCTGCAATAAACAAGTTAACAACAAC
modifications: in pRL-SV40; U1_theo_8 in pRL-SV40
notes: as for B3
- induction fold of luciferase activity (theophylline treated / untreated) ([2]; 3 mM theophylline, 20 to 24 hours): 1.3 fold
- change of luciferase activity after theophylline treatment (in words) [2]: small increase in luciferase activity
- change of luciferase activity after theophylline treatment (in words) ([2]; listed as 8): increased

B5: 3×U1-140 wt: 3 copies of wild type U1 binding sequence at −140 in pRL-SV40 (nucleic acid)
DNA: TCAAATCGTTCGTTGAGCGAGTTCTCAAAAATGAACAATAATTCTAGACAGGTAAGTAACCAAACAGGTAAGTAACCAAACAGGTAAGTAGCGGCCGCTTCGAGCAGACATGATAAGATACATTGATGAGTTTGGACAAACCACAACTAGAATGCAGTGAAAAAAATGCTTTATTTGTGAAATTTGTGATGCTATTGCTTTATTTGTAACCATTATAAGCTGCAATAAACAAGTTAACAACAAC
modifications: in pRL-SV40; 3xU1-140 wt in pRL-SV40
- reduction fold (luciferase activity of mutant construct / wild type construct) [1]: 462 fold

B6: U1 87-9 SL: 9 nt U1 site embedded in a stem-loop structure in pRL-SV40 (nucleic acid)
DNA: TCAAATCGTTCGTTGAGCGAGTTCTCAAAAATGAACAATAATTCTAGAGCGGCCGCTTCGAGCAGACATGATAAGATACATTGATGAGTTTGGACAAACCAAACCCAGGTAAGTTACCGAAAGGTAACTTACCTGGGCAACTAGAATGCAGTGAAAAAAATGCTTTATTTGTGAAATTTGTGATGCTATTGCTTTATTTGTAACCATTATAAGCTGCAATAAACAAGTTAACAACAAC
modifications: in pRL-SV40; U1 87-9 SL in pRL-SV40
notes: 9 nt U1 site embedded in a stem-loop structure in pRL-SV40
- suppressive effect of U1 site on luciferase gene expression (in words) [1]: completely abolished the suppressive effect of the U1 site
- suppressive effect of U1 site on luciferase gene expression (in words) ([1]; listed as U1 87-9 stem loop): completely abolished the suppressive effect

B7: U1-140 mut: mutant U1 binding sequence at −140 in pRL-SV40 (nucleic acid)
DNA: TCAAATCGTTCGTTGAGCGAGTTCTCAAAAATGAACAATAATTCTAGACATGGAACTAGCGGCCGCTTCGAGCAGACATGATAAGATACATTGATGAGTTTGGACAAACCACAACTAGAATGCAGTGAAAAAAATGCTTTATTTGTGAAATTTGTGATGCTATTGCTTTATTTGTAACCATTATAAGCTGCAATAAACAAGTTAACAACAAC
modifications: in pRL-SV40; U1-140 mut in pRL-SV40
- suppressive effect of U1 site on luciferase gene expression (in words) [1]: did not cause inhibition of luciferase gene expression

B8: U1-140 wt: consensus U1 binding sequence at −140 in pRL-SV40 (nucleic acid)
DNA: TCAAATCGTTCGTTGAGCGAGTTCTCAAAAATGAACAATAATTCTAGACAGGTAAGTAGCGGCCGCTTCGAGCAGACATGATAAGATACATTGATGAGTTTGGACAAACCACAACTAGAATGCAGTGAAAAAAATGCTTTATTTGTGAAATTTGTGATGCTATTGCTTTATTTGTAACCATTATAAGCTGCAATAAACAAGTTAACAACAAC
modifications: in pRL-SV40; U1-140 wt in pRL-SV40
- reduction fold (luciferase activity of mutant construct / wild type construct) [1]: 12 fold
- inhibition of Renilla luciferase expression/activity [1]: 91%

B9: 2×U1-140 wt: 2 copies of wild type U1 binding sequence at −140 in pRL-SV40 (nucleic acid)
DNA: TCAAATCGTTCGTTGAGCGAGTTCTCAAAAATGAACAATAATTCTAGACAGGTAAGTAACCAAACAGGTAAGTAGCGGCCGCTTCGAGCAGACATGATAAGATACATTGATGAGTTTGGACAAACCACAACTAGAATGCAGTGAAAAAAATGCTTTATTTGTGAAATTTGTGATGCTATTGCTTTATTTGTAACCATTATAAGCTGCAATAAACAAGTTAACAACAAC
modifications: in pRL-SV40; 2xU1-140 wt in pRL-SV40
- reduction fold (luciferase activity of mutant construct / wild type construct) [1]: 272 fold

B10: U1 87-9 SL broken: control sequence in which no stem is formed, in pRL-SV40 (nucleic acid)
DNA: TCAAATCGTTCGTTGAGCGAGTTCTCAAAAATGAACAATAATTCTAGAGCGGCCGCTTCGAGCAGACATGATAAGATACATTGATGAGTTTGGACAAACCAAACCCAGGTAAGTTACCGAAAAAAACAAACAAAAAACAACTAGAATGCAGTGAAAAAAATGCTTTATTTGTGAAATTTGTGATGCTATTGCTTTATTTGTAACCATTATAAGCTGCAATAAACAAGTTAACAACAAC
modifications: in pRL-SV40; U1 87-9 SL broken in pRL-SV40
- suppressive effect of U1 site on luciferase gene expression (in words) [1]: showed little effect on the suppressive function of U1 site

B11: 87-9: 9-nt truncated U1 site at −87 in pRL-SV40 (nucleic acid)
DNA: TCAAATCGTTCGTTGAGCGAGTTCTCAAAAATGAACAATAATTCTAGAGCGGCCGCTTCGAGCAGACATGATAAGATACATTGATGAGTTTGGACAAACCAGGTAAGTCAACTAGAATGCAGTGAAAAAAATGCTTTATTTGTGAAATTTGTGATGCTATTGCTTTATTTGTAACCATTATAAGCTGCAATAAACAAGTTAACAACAAC
modifications: in pRL-SV40; 87-9 in pRL-SV40
notes: 9-nt truncated U1 site at −87 in pRL-SV40
- suppressive effect of U1 site on luciferase gene expression (in words) [1]: functioned as well as the 10-nt U1 site

Source: patent publication US11697815B2, “Regulation of gene expression through aptamer-modulated polyadenylation” (MeiraGTx UK II Limited, priority 2016, dated 2023)
